± gives the uncertainty stated by the source.
Test: self-splicing fitness, log relative to wild type (ln ratio); higher = more splicing; Tetrahymena group I intron in knt gene, E. coli kanamycin selection, DiMSum; sequences stand for … in CUCUCU…GGAGGGAAAAGUUAUCAGGCAUGCACCUGGUAGCUAGUCUUUAAACCAAUAGAUUGCAUCGGUUUAAAAGGCAAGACCGUCAAAUUGCGGGAAAGGGGUCAACAGCCGUUCAGUACCAAGUCUCAGGGGAAACUUUGAGAUGGCCUUGCAAAGGGUAUGGUAAUAAGCUGACGGACAUGGUCCUAACCACGCAGCCAAGUCCUAAGUCAACAGAUCUUCUGUUGAUAUGGAUGCAGUUCACAGACUAAAUGUCGGUCGGGGAAGAUGUAUUCUUCUCAUAAGAUAUAGUCGGACCUCUCCUUAAUGGGAGCUAGCGGAUGAAGUGAUGCAACACUGGAGCCGCUGGGAACUAAUUUGUAUGCGAAAGUAUAUUGAUUAGUUUUGGAGUACUCGUGGUCG
In short: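 Library with all eight P1ex-region intron nucleotides randomised, intron inside the knt kanamycin-resistance gene on pET-22b(+), in E. coli BL21(DE3). Cells grew overnight at 37°C or 30°C on LB agar with or without 25 μg/mL kanamycin (plus 100 μg/mL carbenicillin, 50 μM IPTG, 0.2% rhamnose), in six replicate transformations. Pooled colonies were amplicon-sequenced on Illumina HiSeq 2500. DiMSum fitness is the error-weighted combination of wild-type-normalised replicate fold changes, kanamycin versus none.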

Row | Sequence | self-splicing fitness (ln) (30 °C) | self-splicing fitness (ln) (37 °C)
1 | CUCCAGCAAUAUUACGUUGU | -4.22 ± 0.15 | -3.49 ± 0.21
2 | CUCGAGCAAUAUUACGAACA | -1.56 ± 0.41 | -2.03 ± 0.49
3 | CUCGAGCAAUAUUACGACAC | -2.69 ± 0.27 | 
4 | CUCGAGCAAUAUUACGACAU | -3.527 ± 0.027 | -2.07 ± 0.038
5 | CUCGAGCAAUAUUACGAUAG | -1.11 ± 0.15 | -0.333 ± 0.15
6 | CUCGAGCAAUAUUACGAUCG |  | -1.71 ± 0.28
7 | CUCGAGCAAUAUUACGCAAA | -2.55 ± 0.33 | -3.66 ± 0.46
8 | CUCGAGCAAUAUUACGCAGA | -2.04 ± 0.35 | -0.967 ± 0.17
9 | CUCGAGCAAUAUUACGCCUU | -2.45 ± 0.15 | -2.72 ± 0.37
10 | CUCGAGCAAUAUUACGCGAA | -3.3 ± 0.34 | -2.41 ± 0.37
11 | CUCGAGCAAUAUUACGCGGA | -3.05 ± 0.24 | -2.63 ± 0.22
12 | CUCGAGCAAUAUUACGCGUA | -2.97 ± 0.48 | -1.59 ± 0.23
13 | CUCGAGCAAUAUUACGCUGC | -3.61 ± 0.42 | 
14 | CUCGAGCAAUAUUACGGAGU | -3.07 ± 0.22 | -2.57 ± 0.31
15 | CUCGAGCAAUAUUACGGGUU | -3.47 ± 0.14 | -3.05 ± 0.16
16 | CUCGAGCAAUAUUACGUACU | -2.68 ± 0.2 | -3.11 ± 0.33
17 | CUCGAGCAAUAUUACGUAGA | -3.34 ± 0.21 | -1.64 ± 0.14
18 | CUCGAGCAAUAUUACGUCGC | -4.4 ± 0.36 | -1.12 ± 0.19
19 | CUCGAGCAAUAUUACGUCGU | -1.77 ± 0.26 | -1.88 ± 0.37
20 | CUCGAGCAAUAUUACGUCUC | -2.55 ± 0.23 | -2.5 ± 0.39
21 | CUCGAGCAAUAUUACGUGGG | -3.08 ± 0.14 | -2.88 ± 0.2
22 | CUCGAGCAAUAUUACGUGGU | -3.41 ± 0.16 | -2.49 ± 0.18
23 | CUCGAGCAAUAUUACGUUAG | -3.81 ± 0.21 | -1.37 ± 0.14
24 | CUCGAGCAAUAUUACGUUAU | -3.99 ± 0.36 | -2.72 ± 0.3
25 | CUCGAGCAAUAUUACGUUGU | -4.17 ± 0.18 | -2.07 ± 0.14
26 | CUCUAGCAAUAUUACGAAUU | -3.81 ± 0.29 | -3.19 ± 0.4

Row | Sequence | self-splicing fitness (ln) (30 °C) | self-splicing fitness (ln) (37 °C)
27 | CUCUAGCAAUAUUACGACUA |  | -1.71 ± 0.28
28 | CUCUAGCAAUAUUACGCCCA | -2.25 ± 0.4 | 
29 | CUCUAGCAAUAUUACGCCUG | -2.33 ± 0.36 | 
30 | CUCUAGCAAUAUUACGCGGA | -3.1 ± 0.4 | -1.9 ± 0.34
31 | CUCUAGCAAUAUUACGCGUC | -3.9 ± 0.47 | -2.85 ± 0.24
32 | CUCUAGCAAUAUUACGCUAC | -3.65 ± 0.47 | -1.14 ± 0.37
33 | CUCUAGCAAUAUUACGCUGU | -3.07 ± 0.31 | -3.24 ± 0.29
34 | CUCUAGCAAUAUUACGGAAU | -3.43 ± 0.26 | -3.25 ± 0.3
35 | CUCUAGCAAUAUUACGGGUG | -1.57 ± 0.092 | -0.947 ± 0.1
36 | CUCUAGCAAUAUUACGGGUU | -4.28 ± 0.32 | -3.31 ± 0.24
37 | CUCUAGCAAUAUUACGGUCC | -2.84 ± 0.33 | -2.53 ± 0.36
38 | CUCUAGCAAUAUUACGGUCG | -1.51 ± 0.14 | -0.933 ± 0.14
39 | CUCUAGCAAUAUUACGGUGC | -2.62 ± 0.21 | 
40 | CUCUAGCAAUAUUACGUCCA |  | -2.12 ± 0.4
41 | CUCUAGCAAUAUUACGUGGA | -3.43 ± 0.25 | -2.17 ± 0.19
42 | CUCUAGCAAUAUUACGUGUC | -3.45 ± 0.21 | -3.91 ± 0.31
43 | CUCUAGCAAUAUUACGUUAA | -2.75 ± 0.27 | 
44 | CUCUAGCAAUAUUACGUUUA | -3.48 ± 0.25 | -3.07 ± 0.29
45 | CUGAAGCAAUAUUACGAACA | -2.82 ± 0.41 | -2.11 ± 0.23
46 | CUGAAGCAAUAUUACGAGAC | -0.346 ± 0.11 | 0.35 ± 0.15
47 | CUGAAGCAAUAUUACGAGCC | -3.13 ± 0.31 | 
48 | CUGAAGCAAUAUUACGAGUU | -4 ± 0.23 | -3.47 ± 0.19
49 | CUGAAGCAAUAUUACGAUAG | -0.213 ± 0.082 | 0.563 ± 0.11
50 | CUGAAGCAAUAUUACGCACG | -0.222 ± 0.072 | -1.34 ± 0.08
51 | CUGAAGCAAUAUUACGCCAU | -3.41 ± 0.31 | -2.52 ± 0.36
52 | CUGAAGCAAUAUUACGCCUC | -3.61 ± 0.44 | 

Row | Sequence | self-splicing fitness (ln) (30 °C) | self-splicing fitness (ln) (37 °C)
53 | CUGAAGCAAUAUUACGCGCA | -3.11 ± 0.23 | -2.19 ± 0.36
54 | CUGAAGCAAUAUUACGCGGG | -1.65 ± 0.17 | -1.83 ± 0.19
55 | CUGAAGCAAUAUUACGCUGU | -3.65 ± 0.2 | -2.75 ± 0.24
56 | CUGAAGCAAUAUUACGGAAA | -3.46 ± 0.26 | -1.43 ± 0.31
57 | CUGAAGCAAUAUUACGGAGA | -3.62 ± 0.38 | -1.97 ± 0.32
58 | CUGAAGCAAUAUUACGGCAU | -2.91 ± 0.12 | -3.52 ± 0.31
59 | CUGAAGCAAUAUUACGGCCA | -2.42 ± 0.17 | -2.69 ± 0.34
60 | CUGAAGCAAUAUUACGGUAA | -3.7 ± 0.24 | -1.27 ± 0.24
61 | CUGAAGCAAUAUUACGGUGA | -4.38 ± 0.31 | -2.6 ± 0.21
62 | CUGAAGCAAUAUUACGUCAA | -1.2 ± 0.065 | -0.435 ± 0.084
63 | CUGAAGCAAUAUUACGUUAC | -3.27 ± 0.35 | -2.39 ± 0.44
64 | CUGAAGCAAUAUUACGUUGA | -4.04 ± 0.18 | -2.66 ± 0.21
65 | CUGCAGCAAUAUUACGAAAU | -3.51 ± 0.37 | -1.62 ± 0.18
66 | CUGCAGCAAUAUUACGACAA |  | -0.88 ± 0.19
67 | CUGCAGCAAUAUUACGAGGA | -3.68 ± 0.22 | -2.39 ± 0.18
68 | CUGCAGCAAUAUUACGAGGC | -2.65 ± 0.17 | -1.97 ± 0.22
69 | CUGCAGCAAUAUUACGAUCG | -0.0275 ± 0.073 | 0.558 ± 0.1
70 | CUGCAGCAAUAUUACGAUUA | -3.35 ± 0.28 | -2.32 ± 0.16
71 | CUGCAGCAAUAUUACGCACU | -3.45 ± 0.2 | -0.783 ± 0.17
72 | CUGCAGCAAUAUUACGCAGG | -2.91 ± 0.17 | -2.15 ± 0.16
73 | CUGCAGCAAUAUUACGCUGU | -1.87 ± 0.12 | -2.8 ± 0.3
74 | CUGCAGCAAUAUUACGGCUG | -3.32 ± 0.3 | -1.52 ± 0.26
75 | CUGCAGCAAUAUUACGGGAA | -4.02 ± 0.29 | -2.53 ± 0.17
76 | CUGCAGCAAUAUUACGUACG | -0.548 ± 0.082 | 0.0422 ± 0.11
77 | CUGCAGCAAUAUUACGUAGA | -3.08 ± 0.15 | -3.35 ± 0.3
78 | CUGCAGCAAUAUUACGUAUA | -2.64 ± 0.17 | -2.16 ± 0.18

Row | Sequence | self-splicing fitness (ln) (30 °C) | self-splicing fitness (ln) (37 °C)
79 | CUGCAGCAAUAUUACGUUCA | -3.81 ± 0.2 | -1.97 ± 0.15
80 | CUGCAGCAAUAUUACGUUCC |  | -1.74 ± 0.35
81 | CUGGAGCAAUAUUACGAAGG | -3.43 ± 0.28 | -1.97 ± 0.27
82 | CUGGAGCAAUAUUACGAUUC | -2.02 ± 0.29 | 
83 | CUGGAGCAAUAUUACGAUUG | -1.87 ± 0.12 | 0.00165 ± 0.13
84 | CUGGAGCAAUAUUACGCGUU | -3.89 ± 0.33 | -1.86 ± 0.27
85 | CUGGAGCAAUAUUACGGAGU | -2.37 ± 0.22 | 
86 | CUGGAGCAAUAUUACGGAUA | -3.57 ± 0.48 | -1.35 ± 0.25
87 | CUGGAGCAAUAUUACGGCAC | -3.28 ± 0.32 | -2.35 ± 0.39
88 | CUGGAGCAAUAUUACGGGGG | -2.27 ± 0.26 | -1.89 ± 0.4
89 | CUGGAGCAAUAUUACGGGUG | -1.61 ± 0.079 | -0.251 ± 0.078
90 | CUGGAGCAAUAUUACGGUAA | -2.61 ± 0.28 | -2.89 ± 0.25
91 | CUGGAGCAAUAUUACGGUAU | -4.78 ± 0.41 | -2.49 ± 0.31
92 | CUGGAGCAAUAUUACGGUCA | -2.54 ± 0.47 | 
93 | CUGGAGCAAUAUUACGGUUC | -2.68 ± 0.49 | 
94 | CUGGAGCAAUAUUACGUCUC | -2.68 ± 0.33 | -1.16 ± 0.36
95 | CUGGAGCAAUAUUACGUGGU | -3.53 ± 0.22 | -2.4 ± 0.35
96 | CUGGAGCAAUAUUACGUUAG | -1.65 ± 0.068 | -1.51 ± 0.098
97 | CUGGAGCAAUAUUACGUUCU | -2.43 ± 0.26 | -1.68 ± 0.49
98 | CUGUAGCAAUAUUACGAAGU | -2.13 ± 0.23 | -1.82 ± 0.27
99 | CUGUAGCAAUAUUACGAAUG | -1.12 ± 0.081 | 0.429 ± 0.11
100 | CUGUAGCAAUAUUACGAGCA |  | -2.01 ± 0.31
101 | CUGUAGCAAUAUUACGAGGG | -3.5 ± 0.49 | -1.14 ± 0.34
